Bridge positions count the residues as written; N and C are the ends. Square brackets hold non-standard residues; d marks the D form. Ends that are not written are not given here. * marks the point of attachment. Acetyl(2-(4-imidazolyl)) = O=C(Cc1c[nH]cn1)*; Aib = CC(C)(N)C(=O)O
T1: human GIP receptor (human, UniProt P48546 22-466)
T1 sequence (looked up): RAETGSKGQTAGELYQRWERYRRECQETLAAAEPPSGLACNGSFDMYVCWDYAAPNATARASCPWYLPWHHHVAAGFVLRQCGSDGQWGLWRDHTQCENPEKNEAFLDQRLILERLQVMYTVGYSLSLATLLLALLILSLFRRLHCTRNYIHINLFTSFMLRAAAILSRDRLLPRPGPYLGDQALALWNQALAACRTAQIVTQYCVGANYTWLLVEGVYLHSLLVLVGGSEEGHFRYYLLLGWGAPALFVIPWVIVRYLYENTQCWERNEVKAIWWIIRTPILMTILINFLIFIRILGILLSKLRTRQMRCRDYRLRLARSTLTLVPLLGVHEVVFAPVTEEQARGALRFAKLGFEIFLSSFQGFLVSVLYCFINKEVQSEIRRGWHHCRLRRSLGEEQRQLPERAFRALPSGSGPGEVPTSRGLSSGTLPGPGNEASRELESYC


Assays:
Experiment in all cases: cell-based or functional assay
human GLP-1 receptor = human GLP-1 receptor (human, UniProt P43220 24-463)
human GCG receptor = human GCG receptor (human, UniProt P47871 26-477)
human GIP receptor = target: T1, human GIP receptor

Sequence of human GCG receptor (P47871 26-477): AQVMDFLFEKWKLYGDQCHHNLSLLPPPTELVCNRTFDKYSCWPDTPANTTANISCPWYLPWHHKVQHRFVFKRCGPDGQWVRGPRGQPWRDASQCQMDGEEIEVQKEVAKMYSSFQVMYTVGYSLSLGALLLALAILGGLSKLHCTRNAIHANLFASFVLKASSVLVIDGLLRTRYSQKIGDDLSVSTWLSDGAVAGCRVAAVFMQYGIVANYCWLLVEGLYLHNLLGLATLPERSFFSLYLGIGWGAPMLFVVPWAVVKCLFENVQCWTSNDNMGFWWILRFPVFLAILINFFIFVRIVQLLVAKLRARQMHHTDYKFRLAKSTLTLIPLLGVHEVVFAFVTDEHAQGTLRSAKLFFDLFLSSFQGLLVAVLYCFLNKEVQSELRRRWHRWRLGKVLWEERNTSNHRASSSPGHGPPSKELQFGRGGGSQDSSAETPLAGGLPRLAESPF

| Binder | In vitro activity (%) compared with native peptide, vs GLP-1 (human GLP-1 receptor) [%] | In vitro activity (%) compared with native peptide, vs Glucagon (human GCG receptor) [%] | In vitro activity (%) compared with native peptide, vs GIP (human GIP receptor) [%] |
| --- | --- | --- | --- |
| [Acetyl(2-(4-imidazolyl))]GQGTFTSDLSKQMDSEAQQLFIEWLKNGGPSSGAPPPSHG (not fully specified) [triple agonist of SEQ ID NO: 16] | 2.1 | < 0.1 | < 0.1 |
| Y[Aib]QGTFTSDYSKYLDECRAKEFVQWLLDHHPSSGQPPPS (bridge 16-20) [triple agonist of SEQ ID NO: 21] | 17.8 | 267 | 22.7 |
| H[Aib]QGTFTSDYSKYLDERACQDFVQWLLDQGGPSSGAPPPS (not fully specified) [triple agonist of SEQ ID NO: 27] | 83.1 | 0.8 | 0.9 |
| H[Aib]QGTFTSDYSKYLDEKRAQEFVCWLLAQKGKKNDWKHNIT (not fully specified) [triple agonist of SEQ ID NO: 28] | 17.2 | 1.6 | < 0.1 |
| Y[Aib]QGTFTSDYSKALDEKAAKDFVNWLLDQHPSSGQPPPSC (bridge 16-20) [triple agonist of SEQ ID NO: 102] | 23.3 | 29.5 | 58 |
| [Acetyl(2-(4-imidazolyl))]GQGTFTSDLSIQYEEEAQQDFVEWLKDTGPSSGAPPPSHG (not fully specified) [triple agonist of SEQ ID NO: 20] | < 0.1 | < 0.1 | < 0.1 |
| Y[Aib]QGTFTSDYSKALDEKAAKDFVNWLLDHHPSSGQPPPSC (bridge 16-20) [triple agonist of SEQ ID NO: 99] | 20.9 | 14.9 | 57.7 |
| [Acetyl(2-(4-imidazolyl))]GQGTFTSDYSIQLDEIAVRDFVEWLKNGGPSSGAPPPSHG (not fully specified) [triple agonist of SEQ ID NO: 14] | 28 | < 0.1 | < 0.1 |
| H[Aib]QGTFTSDCSKYLDERAAQDFVQWLLDGGPSSGAPPPS (not fully specified) [triple agonist of SEQ ID NO: 25] | 82.6 | 0.1 | < 0.1 |
| H[Aib]QGTFTSDVSSYLDGQAQKEFIAWLVKGC (not fully specified) [triple agonist of SEQ ID NO: 2] | 5.9 | < 0.1 | < 0.1 |
| H[Aib]QGTFTSDVSSYLLGQAAKQFIAWLVKGGGPSSGAPPPSC (not fully specified) [triple agonist of SEQ ID NO: 3] | 1.8 | < 0.1 | < 0.1 |
| Y[Aib]QGTFTSDYSKYLDEKRAKEFVQWLLDHCPSSGQPPPS (bridge 16-20) [triple agonist of SEQ ID NO: 96] | 34.4 | 195 | 5.2 |
| [Acetyl(2-(4-imidazolyl))]GQGTFTSDLSIQYDSEHQRDFIEWLKDTGPSSGAPPPSHG (not fully specified) [triple agonist of SEQ ID NO: 19] | < 0.1 | < 0.1 | < 0.1 |
| [Acetyl(2-(4-imidazolyl))]GEGTFTSDLSKYLDSRRQQLFVQWLKAGGPSSGAPPPSHG (not fully specified) [triple agonist of SEQ ID NO: 11] | 1.4 | < 0.1 | < 0.1 |
| Y[Aib]QGTFTSDYSKYLDEKRAKEFVQWLLDCHPSSGQPPPS (bridge 16-20) [triple agonist of SEQ ID NO: 97] | 10.5 | 62.8 | 2.6 |
| [Acetyl(2-(4-imidazolyl))]GQGTFTSDLSKQMDEERAREFIEWLLAQKPSSGAPPPSHG (not fully specified) [triple agonist of SEQ ID NO: 17] | 0.2 | < 0.1 | < 0.1 |
| [Acetyl(2-(4-imidazolyl))]GEGTFISDLSKYMDEQAVQLFVEWLMAGGPSSGAPPPSHG (not fully specified) [triple agonist of SEQ ID NO: 12] | 0.4 | < 0.1 | < 0.1 |
| H[Aib]QGTFTSDVSKYLDGQAAQEFVAWLLAGGGPSSGAPPPSC (not fully specified) [triple agonist of SEQ ID NO: 10] | 46 | < 0.1 | < 0.1 |
| [Acetyl(2-(4-imidazolyl))]GQGTFTSDLSKQMDSERAREFIEWLKNTGPSSGAPPPSHG (not fully specified) [triple agonist of SEQ ID NO: 18] | < 0.1 | < 0.1 | < 0.1 |
| Y[Aib]QGTFTSDYSKCLDEKRAKEFVQWLLDHHPSSGQPPPS (bridge 16-20) [triple agonist of SEQ ID NO: 22] | 20.1 | 140 | 59.7 |
| Y[Aib]QGTFTSDYSKALDEKAAKEFVNWLLDHHPSSGQPPPSC (bridge 16-20) [triple agonist of SEQ ID NO: 98] | 28.1 | 8.2 | 47.1 |
| Y[Aib]QGTFTSDYSKALDEKAAKEFVQWLLDQHPSSGQPPPSC (bridge 16-20) [triple agonist of SEQ ID NO: 100] | 42.2 | 12.7 | 118 |
| Y[Aib]QGTFTSDYSKYLDEKRAKEFVQWLLCHHPSSGQPPPS (bridge 16-20) [triple agonist of SEQ ID NO: 95] | 2.1 | 0.4 | < 0.1 |
| [Acetyl(2-(4-imidazolyl))]GEGTFISDYSIQLDEIAVQDFVEWLLAQKPSSGAPPPSHG [triple agonist of SEQ ID NO: 13] | < 0.1 | < 0.1 | < 0.1 |
| H[Aib]QGTFTSDCSKYLDSRAAQDFVQWLLDGGPSSGAPPPS (not fully specified) [triple agonist of SEQ ID NO: 26] | 64.5 | 0.2 | < 0.1 |
| Y[Aib]QGTFTSDYSKALDEKAAKEFVNWLLDQHPSSGQPPPSC (bridge 16-20) [triple agonist of SEQ ID NO: 101] | 23.2 | 13.9 | 40.1 |
| Y[Aib]QGTFTSDYSKYLDECRAKEFVQWLLAQKGKKNDWKHNIT (bridge 16-20; not fully specified) [triple agonist of SEQ ID NO: 23] | 4.01 | 9.3 | < 0.1 |
| Y[Aib]QGTFTSDYSKYLDECRAKEFVQWLKNGGPSSGAPPPS (bridge 16-20) [triple agonist of SEQ ID NO: 24] | 41.2 | 9.3 | < 0.1 |

Reference: patent US20230355720A1, “PHARMACEUTICAL COMPOSITION FOR PREVENTING OR TREATING BONE DISEASES, COMPRISING TRIPLE AGONIST OR CONJUGATE THEREOF HAVING ACTIVITY WITH RESPECT TO ALL OF GLUCAGON, GLP-1 AND GLP RECEPTORS” (HANMI PHARM. CO., LTD., priority 2020, published 2023)
